B1: antibody 510 (antibody, V domains shown)
VH: QVQLQESGPGLVKPSQTLSLTCTVSGGSISSGSYYWSWIRQPAGKGLEWIGRIYTSGSTNYNPSLKSRVTISVDTSKNQFSLKLSSVTAADTAVYYCAREGQWLYRFDYWGQGTLVTVSS
VL: QSALTQPASVSGSPGQSITISCTGTSSDVGNYDLVSWYQQHPGKAPKLVIYGVTKRPSGVSNRFSGSKSGNTASLTISGLQAEDEADYYCCSYATGDTSVFGTGTKVTVL
B2: antibody 496 (antibody, V domains shown)
VH: QVQLVQSGAEVKKPGASVKVSCKASGYTFTDYYIHWVRQAPGQGLEWMGWINPNSGGTNYAQKFQGRLTMTRDTSISTAYMELSRLRSDDTAVYYCARVYSMFREFIINPYYYYYGLDVWGQGTTVTVSS
VL: QSALTQPASVSGSPRQSITISCTGTSSDVGSYNLVSWYQQHPGKAPKLMIYEGSKRPSGVSNRFSGSKSGNTASLAISGLQAEDEANYYCCSYAGSSTLVFGGGTKLTVL
B3: antibody 497 (antibody, V domains shown)
VH: QVQLQESGPGLVKPSQTLSLTCTVSGGSINSFGYYWSWIRQHPGKGLEWIGYIYYSGSTDYNPSLNSRVTISLDTSKNQFLLKLTSVTAADTAVYYCAKLTDYYDSSGYSFDYWGQGTLVTVSS
VL: DIQMTQSPSSVSASVGDRVTITCRASQDISRWLAWYQQKPGKAPKLLIYAASSLQSGVPSRFSGRGSGTELTLTISSLQPEDFATYFCQQAYSFPFTFGGGTKVEIK
B4: antibody 514 (antibody, V domains shown)
VH: EVQLVQSGAEVKKPGATVKISCKVSGYTFTDYYMHWVQQAPGKGLEWMGLVDPEDGETIYAEKFQGRVTITADTSTDTAYMELSSLRSEDTAVYYCATDCKYDILTGHYSAGYYYYGMDVWGQGTTVTVSS
VL: DIQMTQSPSSLSASVGDRVTITCRASQGISNYLAWFQQKPGKAPKSLIYAASSLQSGVPSKFSGSGSGTDFTLTISSLQPEDFATYYCQQYNSYPFTFGGGTKVEIK
B5: antibody 487 (antibody, V domains shown)
VH: QVQLQESGPGLVKPSQTLSLTCTVSGGSISSGGYYWSWIRQHPGKGLEWIGYIYYSGSTYYNPSLKSRVTISVDTSKNQFSLKLSSVTAADTAVYYCARGPLDFWSGYFRLRYFDCWGQGTLVTVSS
VL: QSALTQPASVSGSPGQSITISCTGTSSDVGGYNYVSWYQQHPGKAPKLMIYDVTNRPSGVSNRFSGSKSGNTASLTISGLQAEDEADYYCSSYTSSSTCVFGTGTKVTVL
B6: antibody 507 (antibody, V domains shown)
VH: QVQLQESGPGLVKPSGTLSLTCAVSGGSISSSNWWSWVRQPPGKGLEWIGEIYHSGNTNYNPSLKSRVTISVDKSKNQFSLKLSSVTAADTAVYYCARREWLRLFDYWGQGTLVTVSS
VL: QSALTQPASVSGSPGQSITISCTGTSSDVGSYNLVSWYQQHPGKAPKLMIYEVSKRPSGVSNRFSGSKSGNTASLTISGLQAEDEADYYCCSYAGSSTYVFGTGTKVTVL
B7: antibody 498 (antibody, V domains shown)
VH: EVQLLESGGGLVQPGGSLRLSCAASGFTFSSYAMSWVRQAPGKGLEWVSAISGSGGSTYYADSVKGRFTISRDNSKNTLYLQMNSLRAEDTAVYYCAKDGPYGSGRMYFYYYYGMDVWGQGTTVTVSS
VL: QSALTQPASVSGSPGQSITISCTGTSSDVGSYNLVSWYQQHPGKAPKLMIYEGSKRPSGVSNRFSGSKSGNTASLTISGLQAEDEADYYCCSYAGSSTSFVVFGGGTKLTVL
B8: antibody 505 (antibody, V domains shown)
VH: EVQLVESGGGLVKPGGSLRLSCAASGFTFSSYSMNWVRQAPGKGLEWVSSISSSSSYIYYADSVKGRITISRDNAKNSLYLQMNSLRAEDTAVYYCAREYPNFRAEWLLSPYGMDVWGQGTTVTVSS
VL: QSALTQPASVSGSPGQSITISCTGTSSDVGSYNLVSWYQQHPGKAPKLMIYEVSKRPSGVSNRFSGSKSGNTASLTISGLQAEDEADYYCCSYAGSSTSVKVFGTGTKVTVL

Target: SARS-CoV spike protein (full-length trimeric, on beads) (SARS-CoV, UniProt P59594 14-1190)

Point of comparison: B3, “bead binding signal, fold over isotype control” value 1.23 fold over isotype. Against it:
- B1 — lower, 1.03 fold over isotype
- B2 — lower, 1.15 fold over isotype
- B4 — lower, 1.15 fold over isotype
- B5 — higher, 7.25 fold over isotype
- B6 — lower, 1.07 fold over isotype
- B7 — higher, 1.31 fold over isotype
- B8 — lower, 1.04 fold over isotype
